# Laboratory results from the supplement of paper PMC9233669.
# Variants at the floor of the assay were thinned out.
# What was measured:
# biotinyl-Phe-oxazolone = experiment: self-aminoacylation, catalytic enhancement (BFO) (fold over background); higher = more active; k-Seq, kA / k0A0; sequences stand for … in GGGAAUGGAUCCACAUCUACGAAUUC…UUCACUGCAGACUUGACGAAGCUG
# Outline: (§1)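 Each biotinyl-aminoacyl-oxazolone, at 2–1250 μM, was incubated with mutagenized RNA pools (0.43 μM) carrying a 21-nt variable region. The 50 μL reactions contained HEPES/NaCl/KCl/MgCl2/CaCl2 buffer with 5% acetonitrile at pH 6.9–7.0 and ran for 90 minutes at room temperature. After streptavidin capture, RNA was measured by qPCR in triplicate and by Illumina sequencing, and catalytic enhancement was calculated as median kA over the uncatalyzed rate from a pseudo-first-order fit of per-sequence fraction reacted.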
# biotinyl-Ile-oxazolone = experiment: self-aminoacylation, catalytic enhancement (BIO) (fold over background); higher = more active; k-Seq, kA / k0A0; sequences stand for … in GGGAAUGGAUCCACAUCUACGAAUUC…UUCACUGCAGACUUGACGAAGCUG
# Outline: as §1
# biotinyl-Met-oxazolone = experiment: self-aminoacylation, catalytic enhancement (BMO) (fold over background); higher = more active; k-Seq, kA / k0A0; sequences stand for … in GGGAAUGGAUCCACAUCUACGAAUUC…UUCACUGCAGACUUGACGAAGCUG
# Outline: as §1
# biotinyl-Val-oxazolone = experiment: self-aminoacylation, catalytic enhancement (BVO) (fold over background); higher = more active; k-Seq, kA / k0A0; sequences stand for … in GGGAAUGGAUCCACAUCUACGAAUUC…UUCACUGCAGACUUGACGAAGCUG
# Outline: as §1
# biotinyl-Leu-oxazolone = experiment: self-aminoacylation, catalytic enhancement (BLO) (fold over background); higher = more active; k-Seq, kA / k0A0; sequences stand for … in GGGAAUGGAUCCACAUCUACGAAUUC…UUCACUGCAGACUUGACGAAGCUG
# Outline: as §1
# biotinyl-Trp-oxazolone = experiment: self-aminoacylation, catalytic enhancement (BWO) (fold over background); higher = more active; k-Seq, kA / k0A0; sequences stand for … in GGGAAUGGAUCCACAUCUACGAAUUC…UUCACUGCAGACUUGACGAAGCUG
# Outline: as §1
Sequence,self-aminoacylation (biotinyl-Phe-oxazolone),self-aminoacylation (biotinyl-Ile-oxazolone),self-aminoacylation (biotinyl-Met-oxazolone),self-aminoacylation (biotinyl-Val-oxazolone),self-aminoacylation (biotinyl-Leu-oxazolone),self-aminoacylation (biotinyl-Trp-oxazolone)
AUUGACCUAGGUCAUCGGCUG [Fam2.2 aminoacylation ribozyme variant],1.19,1.6,1.58,1.7,1.76,1.95
AUUGACCUAGGUCAUCGGGUG [Fam2.2 aminoacylation ribozyme variant],337,20.6,43.8,17.4,58.8,31.1
AUUGACCUAGGUCAUUGGGUG [Fam2.2 aminoacylation ribozyme variant],14.7,2.82,2.54,2.33,2.94,3.59
AUUGACCUAGGUCCUCGGGUG [Fam2.2 aminoacylation ribozyme variant],29,4.32,4.64,3.24,5.76,5.43
AUUGACCUUGGUCAUCGGGUG [Fam2.2 aminoacylation ribozyme variant],32.8,3.38,5.19,3.36,5.49,5.82
AUUGACGUAGGUCAUCGGGUG [Fam2.2 aminoacylation ribozyme variant],30.5,2.26,4.18,3.22,3.27,4.06
AUUGACUUAGGUCAUCGGGUG [Fam2.2 aminoacylation ribozyme variant],39.1,3.47,5.25,3.95,6.27,5.77
AUUGAGCUAGGUCAUCGGGUG [Fam2.2 aminoacylation ribozyme variant],26.6,3.41,3.78,3.55,5.61,5.57
AUUGCCCAGGUCAUCGAGUGA [Fam2.1 aminoacylation ribozyme variant],18.4,2.66,5.51,3.16,4.81,5.7
AUUGCCCUGAUCAUCGAGUGA [Fam2.1 aminoacylation ribozyme variant],26.6,3.73,7.51,4.01,7.17,8.98
AUUGCCCUGCUCAUCGAGUGA [Fam2.1 aminoacylation ribozyme variant],5.55,1.22,1.86,1.61,1.91,1.04
AUUGCCCUGGUCAUCAAGUGA [Fam2.1 aminoacylation ribozyme variant],5.6,1.39,2.36,1.65,2.05,2.85
AUUGCCCUGGUCAUCGAAUGA [Fam2.1 aminoacylation ribozyme variant],0.641,1.05,1.29,1.29,1.34,0.773
AUUGCCCUGGUCAUCGAGUCA [Fam2.1 aminoacylation ribozyme variant],0.963,0.957,0.817,0.894,0.777,0.652
AUUGCCCUGGUCAUCGCGUGA [Fam2.1 aminoacylation ribozyme variant],157,9.62,23.1,12,26.3,23.6
AUUGCCCUGGUCAUCGGGUGA [Fam2.1 aminoacylation ribozyme variant],317,23.1,58.1,30,67.3,73.4
AUUGCCCUGGUCAUGGAGUGA [Fam2.1 aminoacylation ribozyme variant],23.7,2.9,3.81,2.58,4.11,4.3
AUUGCCCUGGUCUUCGAGUGA [Fam2.1 aminoacylation ribozyme variant],47.1,3.44,6.57,3.96,6.8,8.03
AUUGCCCUGGUGAUCGAGUGA [Fam2.1 aminoacylation ribozyme variant],36.1,2.77,5.63,2.82,5.06,6
AUUGCGCUGGUCAUCGAGUGA [Fam2.1 aminoacylation ribozyme variant],25.1,2.47,4.28,2.62,4.57,5.11
AUUGGCCUGGUCAUCGAGUGA [Fam2.1 aminoacylation ribozyme variant],30.7,4.1,6.17,4.31,7.35,9.15
AUUUACAUAGGUCAUCGGGUG [Fam2.2 aminoacylation ribozyme variant],39,3.38,5.69,3.38,6.44,5.5
AUUUACCUAGGUCAUCGGGCG [Fam2.2 aminoacylation ribozyme variant],3.65,2.57,3.93,3,4.32,3.25
AUUUACCUAGGUCAUCGGGGG [Fam2.2 aminoacylation ribozyme variant],3.14,2.81,3.84,2.46,4.77,2.43
AUUUACCUAGGUCAUCGGGUC [Fam2.2 aminoacylation ribozyme variant],0.638,1.12,1.26,1.27,1.33,1.02
AUUUACCUAGGUCAUCGGGUU [Fam2.2 aminoacylation ribozyme variant],36.2,5.12,8.02,4.59,11.7,6.98

Sequence,self-aminoacylation (biotinyl-Phe-oxazolone),self-aminoacylation (biotinyl-Ile-oxazolone),self-aminoacylation (biotinyl-Met-oxazolone),self-aminoacylation (biotinyl-Val-oxazolone),self-aminoacylation (biotinyl-Leu-oxazolone),self-aminoacylation (biotinyl-Trp-oxazolone)
AUUUACCUAGGUCAUGGGGUG [Fam2.2 aminoacylation ribozyme variant],25.7,3.3,4.54,2.85,6.06,4.29
AUUUACCUAGGUCGUCGGGUG [Fam2.2 aminoacylation ribozyme variant],9.82,1.46,1.61,1.82,1.88,0.963
AUUUACCUAGGUCUUCGGGUG [Fam2.2 aminoacylation ribozyme variant],24.9,2.84,4.28,3.38,4.16,3.92
AUUUCCCUGGGCAUCGAGUGA [Fam2.1 aminoacylation ribozyme variant],32.6,3,5.56,3.21,6.7,6.79
AUUUCCCUGGUCAGCGAGUGA [Fam2.1 aminoacylation ribozyme variant],37.4,4.15,6.28,3.85,6.54,6.86
AUUUGCCUAGGUCAUCGGGUG [Fam2.2 aminoacylation ribozyme variant],195,16,28,14.1,38.3,24.6
CAACACUUCAAACAAUCGGUC [Fam1B.1 aminoacylation ribozyme variant],78.2,1.36,1.84,1.38,2.11,38.2
CAACACUUCAAGCAAUCGGCC [Fam1B.1 aminoacylation ribozyme variant],4.12,2.57,2.64,2.58,2.45,3.87
CAACACUUCAAGCAAUCGGUC [Fam1B.1 aminoacylation ribozyme variant],43.1,1.13,1.11,1.27,1.55,20.1
CAACACUUCAAGCAUUCGGUC [Fam1B.1 aminoacylation ribozyme variant],1.04,1.71,1.61,1.76,1.58,1.83
CAACACUUCAAGGAAUCGGUC [Fam1B.1 aminoacylation ribozyme variant],3.28,1.47,1.07,1.03,0.95,3.1
CAACACUUCAAGUAAUCGGUC [Fam1B.1 aminoacylation ribozyme variant],10.4,0.979,1.05,0.899,1.19,7.22
CAACACUUCAAUCAAUCGGUC [Fam1B.1 aminoacylation ribozyme variant],34.9,1.06,1.19,1.05,1.66,19.1
CAACACUUCCAGCAAUCGGUC [Fam1B.1 aminoacylation ribozyme variant],0.986,1.41,1.1,1.26,1.1,1.01
CAACUCCAAACAAUCGGUCUG [Fam1A.1 aminoacylation ribozyme variant],6.95,1.31,1.36,1.14,1.1,3.05
CAACUCUUCAAGCAAUCGGUC [Fam1B.1 aminoacylation ribozyme variant],9.86,1.05,1.16,1.04,1.33,6.16
CAACUUCAAACAAUCGGUGUG [Fam1A.1 aminoacylation ribozyme variant],27.3,1.92,2.15,1.7,2.53,16.5
CAACUUGAAACAAUCGGUCUG [Fam1A.1 aminoacylation ribozyme variant],1.36,1.15,1.24,1.11,1.36,1.02
CAAUUUCAAACAAUCGGUCUG [Fam1A.1 aminoacylation ribozyme variant],9.15,1.01,1.02,0.869,0.903,5.88
CACCACUUCAAGCAAUCGGUC [Fam1B.1 aminoacylation ribozyme variant],40.5,1.11,1.33,1.28,1.83,21.8
CAGAUUGCUAAUAGUCGCAAG [Fam3.1 aminoacylation ribozyme variant],1.9,1.37,1.24,1.28,1.23,1.31
CAGUUUGCGAAUAGUCGCAAG [Fam3.1 aminoacylation ribozyme variant],5.57,1.79,1.93,1.59,2.67,2
CAGUUUGCUAAUAGUCGGAAG [Fam3.1 aminoacylation ribozyme variant],3.05,1.27,1.26,1.35,1.11,1.43
CAGUUUGCUAAUAGUCUCAAG [Fam3.1 aminoacylation ribozyme variant],1.71,0.951,0.711,0.829,1.09,0.993
CAGUUUGCUAAUAGUGGCAAG [Fam3.1 aminoacylation ribozyme variant],0.616,0.854,1.04,0.882,0.854,0.985
